In patent US20200207850A1 (MacroGenics, published 2020):
Like-named read-outs stand apart in the source and are kept apart here.

B1: HIV mAb 1/CD3 mAb 2/CD8 mAb 1 Tri-Specific Binding Molecule (other)
chain 1: DIVMTQSPDSLAVSPGERATIHCKSSQTLLYSSNNRHSIAWYQQRPGQPPKLLLYWASMRLSGVPDRFSGSGSGTDFTLTINNLQAEDVAIYYCHQYSSHPPTFGHGTRVEIKGGGSGGGGEVQLVESGGGLVQPGGSLRLSCAASGFTFSTYAMNWVRQAPGKGLEWVGRIRSKYNNYATYYADSVKGRFTISRDDSKNSLYLQMNSLKTEDTAVYYCVRHGNFGNSYVSWFAYWGQGTLVTVSSASTKGEVAACEKEVAALEKEVAALEKEVAALEKGGGDKTHTCPPCPAPEAAGGPSVFLFPPKPKDTLMISRTPEVTCVVVDVSHEDPEVKFNWYVDGVEVHNAKTKPREEQYNSTYRVVSVLTVLHQDWLNGKEYKCKVSNKALPAPIEKTISKAKGQPREPQVYTLPPSREEMTKNQVSLWCLVKGFYPSDIAVEWESNGQPENNYKTTPPVLDSDGSFFLYSKLTVDKSRWQQGNVFSCSVMHEALHNHYTQKSLSLSPGK
chain 2: QAVVTQEPSLTVSPGGTVTLTCRSSTGAVTTSNYANWVQQKPGQAPRGLIGGTNKRAPWTPARFSGSLLGGKAALTITGAQAEDEADYYCALWYSNLWVFGGGTKLTVLGGGGSGGGGQVQLVQSGGGVFKPGGSLRLSCEASGFTFTEYYMTWVRQAPGKGLEWLAYISKNGEYSKYSPSSNGRFTISRDNAKNSVFLQLDRLSADDTAVYYCARADGLTYFSELLQYIFDLWGQGARVTVSSASTKGKVAACKEKVAALKEKVAALKEKVAALKE
heavy: EVQLQQSGAELVKPGASVKLSCTASGFNIKDTYIHFVRQRPEQGLEWIGRIDPANDNTLYASKFQGKATITADTSSNTAYMHLCSLTSGDTAVYYCGRGYGYYVFDHWGQGTTLTVSSASTKGPSVFPLAPSSKSTSGGTAALGCLVKDYFPEPVTVSWNSGALTSGVHTFPAVLQSSGLYSLSSVVTVPSSSLGTQTYICNVNHKPSNTKVDKRVEPKSCDKTHTCPPCPAPEAAGGPSVFLFPPKPKDTLMISRTPEVTCVVVDVSHEDPEVKFNWYVDGVEVHNAKTKPREEQYNSTYRVVSVLTVLHQDWLNGKEYKCKVSNKALPAPIEKTISKAKGQPREPQVYTLPPSREEMTKNQVSLSCAVKGFYPSDIAVEWESNGQPENNYKTTPPVLDSDGSFFLVSKLTVDKSRWQQGNVFSCSVMHEALHNRYTQKSLSLSPG
light: DVQINQSPSFLAASPGETITINCRTSRSISQYLAWYQEKPGKTNKLLIYSGSTLQSGIPSRFSGSGSGTDFTLTISGLEPEDFAMYYCQQHNENPLTFGAGTKLELRRTVAAPSVFIFPPSDEQLKSGTASVVCLLNNFYPREAKVQWKVDNALQSGNSQESVTEQDSKDSTYSLSSTLTLSKADYEKHKVYACEVTHQGLSSPVTKSFNRGEC
B2: HIV mAb 2/CD3 mAb 2/CD8 mAb 1 Tri-Specific Binding Molecule (other)
chain 1: QSALTQPPSASGSPGQSVTISCTGTSSDVGGYNYVSWYQHHPGKAPKLIISEVNNRPSGVPDRFSGSKSGNTASLTVSGLQAEDEAEYYCSSYTDIHNFVFGGGTKLTVLGGGSGGGGEVQLVESGGGLVQPGGSLRLSCAASGFTFSTYAMNWVRQAPGKGLEWVGRIRSKYNNYATYYADSVKGRFTISRDDSKNSLYLQMNSLKTEDTAVYYCVRHGNFGNSYVSWFAYWGQGTLVTVSSASTKGEVAACEKEVAALEKEVAALEKEVAALEKGGGDKTHTCPPCPAPEAAGGPSVFLFPPKPKDTLMISRTPEVTCVVVDVSHEDPEVKFNWYVDGVEVHNAKTKPREEQYNSTYRVVSVLTVLHQDWLNGKEYKCKVSNKALPAPIEKTISKAKGQPREPQVYTLPPSREEMTKNQVSLWCLVKGFYPSDIAVEWESNGQPENNYKTTPPVLDSDGSFFLYSKLTVDKSRWQQGNVFSCSVMHEALHNHYTQKSLSLSPGK
chain 2: QAVVTQEPSLTVSPGGTVTLTCRSSTGAVTTSNYANWVQQKPGQAPRGLIGGTNKRAPWTPARFSGSLLGGKAALTITGAQAEDEADYYCALWYSNLWVFGGGTKLTVLGGGGSGGGGQVQLQESGPGLVKPSQTLSLSCTVSGGSSSSGAHYWSWIRQYPGKGLEWIGYIHYSGNTYYNPSLKSRITISQHTSENQFSLKLNSVTVADTAVYYCARGTRLRTLRNAFDIWGQGTLVTVSSASTKGKVAACKEKVAALKEKVAALKEKVAALKE
heavy: B1 heavy
light: B1 light
B3: 5T4 mAb 2/CD3 mAb 2/CD8 mAb 2 Tri-Specific Binding Molecule (other)
chain 1: DVLMTQTPLSLPVSLGDQASISCRSSQSIVYSNGNTYLEWYLQKPGQSPKLLIYKVSNRFSGVPDRFSGSGSGTDFTLKISRVEAEDLGVYYCFQGSHVPFTFGSGTKLEIKGGGSGGGGEVQLVESGGGLVQPGGSLRLSCAASGFTFSTYAMNWVRQAPGKGLEWVGRIRSKYNNYATYYADSVKGRFTISRDDSKNSLYLQMNSLKTEDTAVYYCVRHGNFGNSYVSWFAYWGQGTLVTVSSGGCGGGEVAALEKEVAALEKEVAALEKEVAALEKGGGDKTHTCPPCPAPEAAGGPSVFLFPPKPKDTLMISRTPEVTCVVVDVSHEDPEVKFNWYVDGVEVHNAKTKPREEQYNSTYRVVSVLTVLHQDWLNGKEYKCKVSNKALPAPIEKTISKAKGQPREPQVYTLPPSREEMTKNQVSLWCLVKGFYPSDIAVEWESNGQPENNYKTTPPVLDSDGSFFLYSKLTVDKSRWQQGNVFSCSVMHEALHNHYTQKSLSLSPGK
chain 2: QAVVTQEPSLTVSPGGTVTLTCRSSTGAVTTSNYANWVQQKPGQAPRGLIGGTNKRAPWTPARFSGSLLGGKAALTITGAQAEDEADYYCALWYSNLWVFGGGTKLTVLGGGGSGGGGQVQLQQPGAELVKPGASVKMSCKASGYTFTSYWITWVKQRPGQGLEWIGDIYPGSGRANYNEKFKSKATLTVDTSSSTAYMQLSSLTSEDSAVYNCARYGPLFTTVVDPNSYAMDYWGQGTSVTVSSGGCGGGKVAALKEKVAALKEKVAALKEKVAALKE
heavy: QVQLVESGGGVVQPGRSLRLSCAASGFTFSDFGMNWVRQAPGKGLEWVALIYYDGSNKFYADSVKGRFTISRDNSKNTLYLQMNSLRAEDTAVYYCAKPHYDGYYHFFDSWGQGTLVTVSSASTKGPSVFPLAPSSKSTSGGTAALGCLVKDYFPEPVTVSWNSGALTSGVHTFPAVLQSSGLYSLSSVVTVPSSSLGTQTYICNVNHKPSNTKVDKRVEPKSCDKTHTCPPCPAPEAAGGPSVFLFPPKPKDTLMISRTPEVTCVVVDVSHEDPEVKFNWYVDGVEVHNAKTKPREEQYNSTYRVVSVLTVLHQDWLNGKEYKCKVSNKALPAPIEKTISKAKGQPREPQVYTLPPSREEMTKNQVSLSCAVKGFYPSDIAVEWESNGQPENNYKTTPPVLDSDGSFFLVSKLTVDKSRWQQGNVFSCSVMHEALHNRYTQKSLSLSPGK
light: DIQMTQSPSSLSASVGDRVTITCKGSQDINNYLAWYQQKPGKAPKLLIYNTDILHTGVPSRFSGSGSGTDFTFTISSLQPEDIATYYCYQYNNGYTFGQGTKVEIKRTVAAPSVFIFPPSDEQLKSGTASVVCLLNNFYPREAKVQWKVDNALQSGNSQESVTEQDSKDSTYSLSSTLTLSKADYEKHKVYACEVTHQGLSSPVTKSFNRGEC
B4: DART molecule having the CD3 mAb 2 Fast Binding Domain (bispecific antibody, V domains shown)
VH: EVQLVESGGGLVQPGGSLRLSCAASGFTFSTYAMNWVRQAPGKGLEWVGRIRSKYNNYATYYADSVKGRFTISRDDSKNSLYLQMNSLKTEDTAVYYCVRHKNFGNSYVTWFAYWGQGTLVTVSS
VL: QAVVTQEPSLTVSPGGTVTLTCRSSTGAVTTSNYANWVQQKPGQAPRGLIGGTNKRAPWTPARFSGSLLGGKAALTITGAQAEDEADYYCALWYSNLWVFGGGTKLTVLG
notes: also called anti-human CD3 mAb 2 Fast

Key:
[1] = target: HIV env on Jurkat 522 FY cells (HIV); assay: cell-based or functional assay
[2] = target: HIV env on Jurkat 522 FY cells (HIV); assay: cell-based or functional assay; remark: listed apart in the source
[3] = target: T1, CD8 on human T cells (PBMC) (human, UniProt P01732 22-235); assay: flow cytometry on human PBMC, CD5+/CD4- gated cells (bear CD8 and CD3), detection anti-human Fc (MFI)
T1 construct: whole, on cells; The CD8+ (CD5+ CD4-) cells also carry CD3; also called CD5+ CD4- gated PBMC; CD8+ T cells
Experimental: Human blood was lysed with ACK lysing buffer, washed 2× with PBS and re-suspended in FACS buffer contained 10% Human AB serum and incubated at room temperature for 20 minutes. Thereafter, the cells were pelleted by centrifugation and re-suspended (4×10⁶ cells/mL) in FACS buffer. 50 μL of serial titrated Tri-Specific Binding Molecules were added into wells of a 96-well deep plate. 50 μL of the cells (4×10⁶ cells/mL) well-mixed cells in FACS buffer containing 0.01% sodium azide were then added into corresponding wells and mixed thoroughly using a pipette. The plate was incubated in the dark for about 45 minutes at 2-8° C. At the end of incubation, the cells were washed twice by adding 300 μL of FACS buffer to each well, the plate was centrifuged at 1,200 rpm for 5 minutes, and the supernatant was discarded. The cell pellets were re-suspended in 100 μL mixture of goat anti-Human IgG Fcγ-PE, CD5-APC and CD4-PerCP5.5 prepared in FACS buffer containing 0.01% sodium azide, and the cells were incubated in the dark for about 45 minutes at 2-8° C. At the end of the incubation, the cells were washed, re-suspended with FACS buffer, and analyzed with a BD Caliber flow cytometer.

[4] = target: T2, 5T4 on JIMT-1 target cells (UniProt Q13641 32-420, limits assumed); assay: cell-based or functional assay
T2 sequence (looked up): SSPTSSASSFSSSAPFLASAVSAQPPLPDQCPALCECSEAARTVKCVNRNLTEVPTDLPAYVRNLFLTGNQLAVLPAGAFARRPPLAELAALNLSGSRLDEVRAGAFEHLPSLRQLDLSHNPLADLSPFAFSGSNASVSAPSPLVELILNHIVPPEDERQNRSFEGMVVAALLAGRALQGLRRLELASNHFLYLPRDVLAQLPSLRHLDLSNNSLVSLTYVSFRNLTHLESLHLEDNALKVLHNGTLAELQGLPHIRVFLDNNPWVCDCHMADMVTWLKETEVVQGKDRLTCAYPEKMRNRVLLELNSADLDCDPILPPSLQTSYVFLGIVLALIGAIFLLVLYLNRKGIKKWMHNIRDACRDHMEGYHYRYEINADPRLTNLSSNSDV

[5] = target: T1, CD8 on human T cells (PBMC); assay: flow cytometry on human PBMC, CD5+/CD4- gated cells (bear CD8 and CD3), detection anti-human Fc (MFI); remark: listed apart in the source
human CD3 = human CD3 (human, UniProt P07766 23-126); assay: binding kinetics sensorgram (RU against time), panel labelled hCD3
Sequence of human CD3 (P07766 23-126): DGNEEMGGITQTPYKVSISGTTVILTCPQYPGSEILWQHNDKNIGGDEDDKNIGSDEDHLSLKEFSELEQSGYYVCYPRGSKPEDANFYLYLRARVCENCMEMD

T1 sequence (P01732 22-235): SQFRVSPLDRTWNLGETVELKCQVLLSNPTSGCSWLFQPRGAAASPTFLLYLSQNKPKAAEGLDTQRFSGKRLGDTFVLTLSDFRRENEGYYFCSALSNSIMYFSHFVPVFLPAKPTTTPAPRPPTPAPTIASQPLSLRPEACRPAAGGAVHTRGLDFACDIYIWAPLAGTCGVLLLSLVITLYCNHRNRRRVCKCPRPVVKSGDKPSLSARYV

| Binder | EC50, nM, % cytotoxicity (LDH), Jurkat Cells 522FY, CD4 effector cells [1] [nM] | EC50, nM, % cytotoxicity (LDH), Jurkat Cells 522FY, CD8 effector cells [1] [nM] | EC50, nM, % cytotoxicity (LDH), Jurkat Cells 522FY, Pan T effector cells [1] [nM] | EC50 nM, % cytotoxicity (LDH), Jurkat Cells 522FY, E/T = 5:1 [2] [nM] | EC50 nM, % cytotoxicity (LDH), Jurkat Cells 522FY, E/T = 10:1 [2] [nM] | EC50 (read off the curve) [3] [pM] | EC50 (nM) of killing, CD4+ effector cells, JIMT1-luc target cells, E:T 5:1 [4] [nM] | EC50 (nM) of killing, CD8+ effector cells, JIMT1-luc target cells, E:T 5:1 [4] [nM] | EC50 (nM) of killing, PanT effector cells, JIMT1-luc target cells, E:T 5:1 [4] [nM] | EC50 (read off the curve) [5] [pM] | Kd (human CD3) [pM] |
| --- | --- | --- | --- | --- | --- | --- | --- | --- | --- | --- | --- |
| B1 | 0.36 | 0.00781 | 0.044 | 0.00019 | 0.00029 | ~800 | – | – | – | – | – |
| B2 | 0.45 | 0.0004 | 0.0015 | 0.00032 | 0.00026 | ~600 | – | – | – | – | – |
| B3 | – | – | – | – | – | – | 0.0336 | 0.0015 | 0.0018 | ~2000 | – |
| B4 | – | – | – | – | – | – | – | – | – | – | 13900 |
